From paper PMC6538167 come the findings set out here.

In this test the target is Sodium/potassium-transporting ATPase subunit alpha-1 (human (endogenous in frontal lobe tissue)) (UniProt P05023).

For the substance SST14 (peptide), the total ^86Rb^+ uptake in HEK293 cells in the presence of SST14 (50 μM), compared to controls is 74.4 % of control; the total ^86Rb^+ uptake in ReN (ReNcell VM) cells in the presence of SST14 (50 μM), compared to controls is 91.5 % of control; the total ^86Rb^+ uptake in mouse N2a cells in the presence of SST14 (50 μM), compared to controls was 53.6 % of control.
